Test results: paper PMC13189363
Where “and” joins values, the source holds several entries; their conditions need not be identical. Equal values may be shown once.

Tests used:
[1] = biological target: DUF4297 from Bacillus ap. HMH5848 (Bacillus ap. HMH5848); assay: mass photometry
[2] = biological target: DUF4297 from Bacillus ap. HMH5848 (Bacillus ap. HMH5848); assay: cryo-EM structure
[3] = biological target: HerA from Bacillus ap. HMH5848 (Bacillus ap. HMH5848); assay: cryo-EM structure

stoichiometry N [1] | stoichiometry N [2] | stoichiometry N [3] | Substance
6 and 12 and 14 | 12 and 4 and 6 | – | DUF4297 from Bacillus ap. HMH5848 (enzyme)
– | – | 6 | HerA from Bacillus ap. HMH5848 (enzyme)
